# Assay: soluble fraction after stress (log2 fold change); higher = more stays soluble; pooled small domains, quantitative proteomics
# Conditions: stress: pH 4
# How it was run: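 Aggregation propensity is estimated from the fold change in each domain's soluble amount after acid stress. Pooled small-domain libraries were stressed at pH 4, and higher log2 values mean more stayed soluble.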
row,Sequence,soluble fraction (log2)
1,HMKLSIEDLAAELIRKIEAGDIGNEQGKMPSERELLAIYPVSRYTLRQALNKLSKMGWIYQMQGRGSYIRF,-0.83
2,HMKLSNELLNAIMLIKKGIRNPTSLAQRLNTDTQYAKNLLEHLKMTGLINEHSRLTSRGLDIFHQK,-0.295
3,HMKLTEEEFNAKRKAYLDRLETLNDEAVIKATFMEAASGLGLQKGSAEFGDLRKYFVDRIVDIK,-0.903
4,HMKLTEGETIFLNESDTADWKKIPGIGSVYASRIVKYRNLLGGFVSVNQLREVYGIDDELFAKIYPYI,-0.0375
5,HMKLTESQLHKFTNDAVLAHIRNLIEFKGAFTEDDIEPIIRDRAAVYGIDLEDEDYKKVKTDVEYHFK,-1.53
6,HMKLVELVGSPKQIAWAEDIRKNMISYLSALVRKYEAENRPARAEKRAKDMEILSNIKEASWFIENRS,0.155
7,HMKMAKTIKEIAEEIGVSKQAVFKKIKQVPLSTEIEKFISTVDGKKLVSVDGENLIKQAFQR,0.255
8,HMKMLKAPIPGTIIEVKVNPGQTVNDGDVAVVLEAMKMESDIHFNSSGKVKKIHVNKGDSVQEGDDLIELE,-0.605
9,HMKMNRELNQRQIKMLDYLSVNPKTTRKQYTKMMGISFMTSYRDIQELIDKAYIISKGQGRGTYYILAN,-0.0196
10,HMKMQIGEIIRKYRKSNHMTQEEMAERLGVSAPAVNKWENGNSMPDIMLLAPITRLLGISLDELLSFE,-0.581
11,HMKMSVEEVNLSPRTTNALINNDIKTMKDLVALTDTELRDLKGFGSKAYEEVKEKLSELGLSTQ,-0.546
12,HMKMSVKNEIISLLEKNRDTSISGQVIADSLNVTRAAVWKAIKVLKEEGYNIDGTPNKGYILLGNN,0.0991
13,HMKMTFGENLHKLRKIYRLSQEDVASAINLKRSDIAAVEKGDRVLNDEELDKLADFIGIDIVDLL,-0.853
14,HMKMVSTPTGTRISLTQVKEFISNASFDDMKEILLEVLAWFKAHNLGNPFNYNRAFEFIVAH,-0.302
15,HMKNELNSKLIISIKEALPPQIKVATYLMDLLSLGREAVYRRIRGDVSFDLEELSIISKALNISIDDVL,-2.53
16,HMKNESLMLPRDIDYSRVHGLSNEAIQKLQDALPQSLGQASRIEGITPATLSLLLLYLKKNNKRI,0.0199

row,Sequence,soluble fraction (log2)
1,HMKNHSTFKSVLSNIEFPINERISGHAIQNPILGLIKADHPNFSSDQYIAISELNFYREKYISNYLLTEI,-1.6
2,HMKNKIYGTIVSSTSGEETVYKVFQVDSSKDITYLFRPDMIRLAHENNQALEFNEETGRGKRIEMSDLPK,-0.0332
3,HMKNLHLVPNVVGMSAKEAKNTLKSFNIKYKPIYGSSNKYDENYIFNQNPRKGKTIKEQEVVTIYISRGAD,≥ 0.43
4,HMKNNNIIFSEFLKEVENGRVVEVRIQGNNIQGIMSNGKEFTTYSPNYPNLIEKLTETGVSISAAPL,-0.516
5,HMKNPLIIGMTKDKIIELIGMPDNIKFLDSSLSKSEVWNYDKFGKKLYIKDEKLYQIENIEE,-0.491
6,HMKNSAAKETILAFLKKNGGELFTQMQIIEKFQKMIPAPVLRITLEELLNKGQVEITSKGKYYLSVKGS,-0.903
7,HMKNSKIVIQKRHNHILELLKQNRTMDVTVLAERLGVTGATIRRDLKKLEQEGTIVRSFGKVSFVG,≥ 0.43
8,HMKNTVGEYRKLKSTTILYSNSDLTGTKYTYLPNTTVKILKNISSTVDYVYIKATNRYAYINIYAYT,0.326
9,HMKNVENIILEQLKKNIYDDLNNASFEEIILIDAEKSIYKGTIKANYIEYNFKINLSTGEILKWKLK,-0.763
10,HMKNVSVKMILSPESLGEIQVDLVFSKGKDLEIMLRPETAEVAKLIQSNSASLREQLSLEHKGPLSLNVS,-0.405
11,HMKNYALHEPMMDRIAKVNALYDAGHTIKYMTARGAVSMVDYYDLTKSQLDSWGAKYHELSVGK,0.179
12,HMKNYYEVLGVPRDAAAPDIKRAFRKLAKQFHPDHNPGDAKAEERFKLVSQAYDVLGDEEKRKLYDQFGE,0.254
13,HMKNYYSILGVTPDSSEAEIKSAYRRLARKFHPDVNPDGASRFKDISEAYETLSDAKKRFQYDTINGF,0.234
14,HMKPATSITFIPSERPDLVEQLSKITFDKKDSLYENYINLNWLTFEAISVYMREGDIIGFST,-0.305
15,HMKPDAAKREQLIDIALRLFSQQGIARTSLNAIAREAGVTPAMLHYYFNSREQLLDVMIEERFL,-1.45
